Biological target: T1, HLA-A*01:01 (human)
T1 construct: MHC class I monomer first loaded with a UV-sensitive peptide (not identified) that is cleaved by UV irradiation and exchanged for the tested peptide; captured on streptavidin plates, detected with anti-β2m; also called peptide-receptive MHC molecules
Test: UV-ligand exchange, anti-b2m ELISA
Summary of the method: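 Peptide–MHC complexes made by UV-ligand exchange of a UV-cleavable peptide; exchange yield measured by ELISA on streptavidin-coated plates, samples diluted 100-fold, 1 h 37 °C. Detection with 2 ug/ml HRP anti-β2m, TMB, A450; refolded HLA-A*02:01/MLA-001 monomer standards 15-500 ng/ml.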

NLDPNKIY
peptide exchange yield: 10 to 20%

RSDPGGGGLAYAAY
peptide exchange yield: > 75%

WSDGVPLLY
peptide exchange yield: > 75%

FTTQDELLVY
peptide exchange yield: 50 to 75%

GSFSIQHTY
peptide exchange yield: 20 to 50%

FMVIAGMPLFY
peptide exchange yield: 50 to 75%

ITDEDEDMLSY
peptide exchange yield: 50 to 75%

STEERRLNY
peptide exchange yield: 50 to 75%

TTQDELLVY
peptide exchange yield: 50 to 75%

YLEDRPLSQLY
peptide exchange yield: > 75%

EVDIHTIHY
peptide exchange yield: 50 to 75%

ATEGDVLNY
peptide exchange yield: 50 to 75%

VTEYAEEIYQY
peptide exchange yield: 50 to 75%

ASDPASSTSCY
peptide exchange yield: 50 to 75%

YLENSASWY
peptide exchange yield: > 75%

FTDSQGNDIK
peptide exchange yield: 50 to 75%

ARDPITFSF
peptide exchange yield: 20 to 50%

MTEKFLFLY
peptide exchange yield: > 75%

SSDIVALGGFLY
peptide exchange yield: 50 to 75%

VSELVTTGHY
peptide exchange yield: 50 to 75%

TSEISQNALMY
peptide exchange yield: > 75%

TSEISQNALMYY
peptide exchange yield: 50 to 75%

SSDFDPLVY
peptide exchange yield: > 75%

NVDQNQNSY
peptide exchange yield: 50 to 75%

QSLPEFGLTY
peptide exchange yield: 20 to 50%

QSLPEFGLTYY
peptide exchange yield: 20 to 50%

YTELVEEKY
peptide exchange yield: 50 to 75%

ASDDVRIEVGLY
peptide exchange yield: > 75%

LTDSTTRTTY
peptide exchange yield: 50 to 75%

VTDSTTKIAY
peptide exchange yield: 50 to 75%

STDSASYY
peptide exchange yield: > 75%

EMEQQSQEY
peptide exchange yield: > 75%

FTDYELKAY
peptide exchange yield: > 75%

QTDVERIKDTY
peptide exchange yield: 50 to 75%

FTSDTGLEY
peptide exchange yield: > 75%

QLDSAVKNLY
peptide exchange yield: 50 to 75%

ASDLEPRELLSY
peptide exchange yield: 50 to 75%

ELCPLPGTSAY
peptide exchange yield: 20 to 50%

TSRAANIPGY
peptide exchange yield: 10 to 20%

YSDLHTPGRY
peptide exchange yield: 50 to 75%

LTEKSHIRY
peptide exchange yield: 50 to 75%

DTEFHGGLHY
peptide exchange yield: 50 to 75%

ESEMIKFASYY
peptide exchange yield: > 75%

SSDNYEHWLY
peptide exchange yield: > 75%

VDPASNTY
peptide exchange yield: 20 to 50%

AFDDIATYF
peptide exchange yield: 20 to 50%

KEVDPAGHSYI
peptide exchange yield: 20 to 50%

EVYDGREHSAY
peptide exchange yield: 20 to 50%

YEDHFPLLF
peptide exchange yield: 20 to 50%

QLDSTLDSY
peptide exchange yield: 50 to 75%

TTDDTTAMASAS
peptide exchange yield: 20 to 50%

HLKILSPIY
peptide exchange yield: 50 to 75%

KPSAVKDSIY
peptide exchange yield: 20 to 50%

SSDPKAVMF
peptide exchange yield: 20 to 50%
